41 sequences from the nanobody polyreactivity screen of Harvey et al. (2022) can be followed below.

The nature of this data set: yeast display, Sf9 membrane polyspecificity reagent, FACS + sequencing; frameworks hold sequencing errors. In short, it runs like this: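 After 36–48 hours of galactose induction, yeast (Saccharomyces cerevisiae BJ5465) displaying a synthetic nanobody library were stained at 4 °C for 1 hour with 10% biotinylated, detergent-solubilized Sf9 membrane reagent. Streptavidin microbeads enriched the stained cells before FACS sorting into low and high (top ~1%) gates on anti-HA and streptavidin fluorescence. Each clone's polyreactivity label reflects its gate of origin.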
For the sequence “QVQLVESRGVLVQAGGSLRLSCAGSGSTILRYALGWYRQAPGKERELVAAINWSGGGTSYADSVKGRFTISRDNAKNTVYFQMNSLKPEDTAVYYCAAYFRYSNYWSEYWGQGTQVTVSS”, the “polyreactivity (PSR sort gate)” value is recorded as “high polyreactivity”.

For the sequence “QVQLVESRRGLVQAGGSLRLSCAASGRIFYRYALGWYRQAPGKEREFVAAISRSGGTTYYADSVKGRFTISRDNAKNTVYLQMNSLNPEDTAVYYCAAGGSFWYFSPRYGYWGQGTQVTVSS”, the “polyreactivity (PSR sort gate)” value was “high polyreactivity”.

Take “QVQLVESRRGLVQARGSLRLSCAASGITFRWYAMGWYRQAPGKERELVAAITTGGSTKYADSVKGRFTISRDNAKNTVYLQMNSLKPEDTAVYYCAARGRYAGGYWGQGTQVTVSS”: the “polyreactivity (PSR sort gate)” value is “high polyreactivity”.

As for “QVQLVESRVGLVQAGGSLRLSCAASGITFYGYAMGWYRQAPGKERELVAAITSGGSTYYADTVKGRFTISRDNAKNTVYFQMNSLKPEDTAVYYCAAYLRRAYVHSYERYYWGQGTQVTVSS”, the “polyreactivity (PSR sort gate)” value is “low polyreactivity”.

In the case of “QVQLVESRWRFVQAGGSLRLSCAASGSIFADYAMGWYRQAPGKERELVAAITFSGGSTYYADSVKGRFTISRDNAKNTVYLQMNSLKPEDTAVYYCAARWRYRYYSWGQGTQVTVSS”, the “polyreactivity (PSR sort gate)” value is reported as “high polyreactivity”.

As to “QVQLVESSGGLVQAGGSLRLSCAASGRIFQAYAMGWYRQAPGKEREMVAAITGGGSTNYADSVKGRFTISRDNAKNTVYLQMNSLKPEDTAVYYCNAVTGTYGWGPQAREQEDYWGQGTQVTVSS”, the “polyreactivity (PSR sort gate)” value was “low polyreactivity”.

Turning to “QVQLVESSGGLVQAGGSLSLICAASVLIFNFYSMGWYRQAPGKERELVDAISWNAGSTYYADSVKGRFTISRDNAKNTVYLQMNSLKPEDTAVYYCAVLPGRYDKTASHYDYWGQGTQVTVSS”, the “polyreactivity (PSR sort gate)” value is “low polyreactivity”.

Regarding “QVQLVESVGCLVQAGGSLRLSCAASGFIFDYYAMGRYRHGPGKERELVAGISWSGGSTYYADSVKGRFTISSDNSKNTVYLQMNSLIPEDTAVYYCNAEDSVPFYLYYYWGQGSQVTVSS”, the “polyreactivity (PSR sort gate)” value is reported as “low polyreactivity”.

On to “QVQLVESVGCLVQAGGSLRLSCAATVSIFDRYAMGWNRQPPGKESELVAAISKSGGRTYYADSVKGRFTISRDNAKNTVYLQMNSLKPEDSAVYDCAADPLLGYLSHYYWGQGTQVTVSS”, for which the “polyreactivity (PSR sort gate)” value is given as “high polyreactivity”.

As to “QVQLVESVGDLVQAGGSLRLSCAASGRNFPVYAMGWYRQAPGKERELVAAITFRSGSTYYADSVKGRFTISRDNAKNTVYLQMNSLKPEDTAVYYCAADFSVQYVGYSAIEGYWGQGTQVTVSS”, the “polyreactivity (PSR sort gate)” value is given as “high polyreactivity”.

Regarding “QVQLVESVGGLDQAGGRLRLSCAASGFTIRPYVRRAYRQAPGTERELVAGISTGGSTYYADSVKGRFTISRDNAQNTVYLQMNRLKPEDTAVYDCAKRGKQYRKMNYWGQGTQVTVSS”, the “polyreactivity (PSR sort gate)” value was “high polyreactivity”.

For “QVQLVESVGGLDQAGGSLRLSCAASALIFPRYDMGSYRQAPGKERELDAAITSGGGTYNADSVKGRFTISRDNAKITVYLQMNSLKPEDTAVYYCAAGPVFGGGGYDYWGQGTQVTVSS”, the “polyreactivity (PSR sort gate)” value is “low polyreactivity”.

For “QVQLVESVGGLDQAGGSLRLSCAASGSIFVGYAMGWYRQAPGKERELVAAITRSGVSTYYADSVKGRFTISRDNAKNTVYLQMNSLKPEDTAVYYCAADPTYRYWRVPWYEYDYWGQGTQVTVSS”, the “polyreactivity (PSR sort gate)” value is “low polyreactivity”.

With “QVQLVESVGGLDQAGGSLRLSCAASGSTFGGYAMGWYRQAPGKERELVAAISSSGTSTYYADSVKGRFTISRDNAKNTVYLQMNSLKPEDNAVYYCATDFSFFSRFDYWGQGTQVTVSS”, the “polyreactivity (PSR sort gate)” value is “low polyreactivity”.

As to “QVQLVESVGGLDQAGGSLRLSCAASGSTFKRYVMGWYRQAPGKERELVAAITWSGTRTYYADSVKGRFTLSRDNAKNTVYLQMNSLKPEDTAVYYCAARLYGGYDWGQGTQVTVSS”, the “polyreactivity (PSR sort gate)” value is given as “high polyreactivity”.

For “QVQLVESVGGLDQAGGSLRLSCPASGRTFGKYAMGWYRQSPGKERELVARISRRGGTTYYADSVKGRFTISRDNAKNTVYLQLNSLKPEDTAVYYCNARRRDYRHWYDYWGQGTQVTVSS”, the “polyreactivity (PSR sort gate)” value was “high polyreactivity”.

In the case of “QVQLVESVGGLDQARGSLRLSCAASGFIYRYYPMGWYRQSPGKERELVASIDWSGGNTYYADSVKGRFTISRDKAKYTVYLQMNSLKPEDTAVYYCNRRGMDWGLGTQVTVSS”, the “polyreactivity (PSR sort gate)” value is “low polyreactivity”.

Consider “QVQLVESVGGLFQAGGSIRLSCAASGRTFFVYAMGWYRQAPGKERVLVAVISFTVDSTFYEDSVKGRFTISRDNAKNTVYLQMNSLKPEDTAVYYCAADVRRVFSKYSYYLYFDLDYWGQGTQVTVSS”, for which the “polyreactivity (PSR sort gate)” value is given as “low polyreactivity”.

Turning to “QVQLVESVGGLGQAGGSLRLSCASSGFTFARYAMAWYIQAPGKERELVAAISGSGSTYYADSVKGRFTISRDNAKNSVYLQMNSLKTEDTAVYYCNAGNFGRFGFWGQGTQVTVSS”, the “polyreactivity (PSR sort gate)” value is listed as “high polyreactivity”.

Consider “QVQLVESVGGLLQAGGSLRLSCADSGSTFTTNVMGWYRQAPGKERELVAAISKRGGSTFYADSVKGRFTISRDNAKNTVYRQMNSLKPEDTAVYYCKALRRGVRDPYGYWGQGTQVTVSS”, for which the “polyreactivity (PSR sort gate)” value is “high polyreactivity”.

On to “QVQLVESVGGLLQAGGTLRLSCAASGITFLDYGRGWYRQATGKERELVATINSGGSTNYADSVKGRFTISRDNAKHTVYLLMNSLKAEDTAVYYCDADYGSDYPKGDYWGQGTQVTVTS”, for which the “polyreactivity (PSR sort gate)” value is on record as “low polyreactivity”.

In the case of “QVQLVESVGGLVQAAGSLRLSCAASGRIFSPYAMGWYRQAPGKESELVAAISWSGGTTYYADSVKGRFTISRDNAKNTVYLQMNSLKPEDTAVYYCAADLGYQDPLDYYWGQGTQVTVSS”, the “polyreactivity (PSR sort gate)” value was “high polyreactivity”.

Take “QVQLVESVGGLVQAGGILRLSCAASGNTFPAYAMGWYRQAPGKERELVATISWSTGSTNYADSVKGRFTISRDTAKNTVYLQMNSLKPEDTAVYYCAASYWCYEYDYWGLGTQVTVSS”: the “polyreactivity (PSR sort gate)” value is listed as “low polyreactivity”.

Regarding “QVQLVESVGGLVQAGGRLRLSCAASGRIFSFYAMGWYRPAPGKEREFVAAITYSGGSSYYADSVKGRFTNSRDNAKKTVYLQMNSLKPEDTAVYYCAARYRYITKYDYWGQGTQVTVSS”, the “polyreactivity (PSR sort gate)” value is listed as “high polyreactivity”.

In the case of “QVQLVESVGGLVQAGGRLRLTCAASGFIFTHYAMVWYRQAPGKERELVAAISWNGGRTYYADSVKGRFTISRDNANITVYLQMNSLKPEDTAVYYCAARIYLSKSFNFWGQGTQVTVSS”, the “polyreactivity (PSR sort gate)” value is given as “high polyreactivity”.

Regarding “QVQLVESVGGLVQAGGSHRLSCAASGLTFEWYTMGWYRQAPGKERELVAVITVSGSSTYYADSVKGRFTISRDNAKNTVYLQMNSLKPEDTAVYYCNADWSFYSYTLYDYWGQGTQVTVSS”, the “polyreactivity (PSR sort gate)” value is “low polyreactivity”.

For the sequence “QVQLVESVGGLVQAGGSLPLSSAASGSIFYRYALGWYRQAPGKERELVAAISDRSGSTYYADSVKGRFTISRDNAKNTVYLQMNSLKPEATAVYYCAASYNYRAAGYGLSRYYYWGQGTQVTVSS”, the “polyreactivity (PSR sort gate)” value is listed as “high polyreactivity”.

Consider “QVQLVESVGGLVQAGGSLRFSCAASGFIFNYNALGWYRQAPGTERELVAAISGTGVRTYYADSVKGRFTISRDNAKNTVYLQMNSLKPEDTAVYYCNAYYGYIPVSGYRNDYWGQGTQVTVSS”, for which the “polyreactivity (PSR sort gate)” value is “low polyreactivity”.

As for “QVQLVESVGGLVQAGGSLRLICAASGRTFSRNAMGWYRQAPGKERELVAGISWRGTSTYYADSVKGRFTISRDNAKNTVFLQMNSLKPEDTAVYYCNRVFEYWSEYDYWGQGTQVTVSS”, the “polyreactivity (PSR sort gate)” value is given as “high polyreactivity”.

For the sequence “QVQLVESVGGLVQAGGSLRLRCAASGSTFYKNAMGRYRQAPGIERELVAGISRRGGRTYYADSVKGRFTISRDNAKNTVYLQMNSLKPEDTAVFYCNTGHEVDEYDYWGQGTQVTVSS”, the “polyreactivity (PSR sort gate)” value was “low polyreactivity”.

For the sequence “QVQLVESVGGLVQAGGSLRLSCAASGFIFKRYAMGWYRQAPGKERELVAAITGSGGSTYYADSVKGRFTISRDNAKNTVYLQMNSLKPEDTAVYYCARGNGGSLDYWGQGTQVTVSS”, the “polyreactivity (PSR sort gate)” value is recorded as “high polyreactivity”.

As to “QVQLVESVGGLVQAGGSLRLSCAASGFIFYQNAMGWYRQAPGKERELVAAISTTGSRTYYADSVKGRFTISRDNAKNTVYLQMNSLKPEDTAVYYCNAPRRVNYDYWGQGTQVTVSS”, the “polyreactivity (PSR sort gate)” value is on record as “high polyreactivity”.

Consider “QVQLVESVGGLVQAGGSLRLSCAASGFIIVEYDMGWYRQAPGKEREFVAAINFSGGSTYYADSVKGRFTISRDNAKNTVYLQMNSLKPEDNAVYYCAADVVRYYYTYYYWGQGTHVTVSS”, for which the “polyreactivity (PSR sort gate)” value is reported as “low polyreactivity”.

As to “QVQLVESVGGLVQAGGSLRLSCAASGFTFGPYDMGWYRQAPGKERELVAVIIGGDSTNYADSVKGRFTISRDNAKNTVYLQMNSLKPEDTAVYYCAADYIDRVGWMDYWGQGTQVTVSS”, the “polyreactivity (PSR sort gate)” value is “low polyreactivity”.

For the sequence “QVQLVESVGGLVQAGGSLRLSCAASGFTFHLYAMGWYRPAPGKERELDAAISQSGDSTYYADSVKGRFTISRDNAKNTVYLQMNSLKPEDTAVYYVNADNDGVVWSYPFDFDYWGQGTQVTVSS”, the “polyreactivity (PSR sort gate)” value is on record as “low polyreactivity”.

With “QVQLVESVGGLVQAGGSLRLSCAASGFTIGYNFMGWYRQAPGKERELVATISWNGARTYYADSVKGRFTISRDNAKNTVYLQMNSLKPEDTAVYYCAARRYYRGEYDYWGQGTQVTVSS”, the “polyreactivity (PSR sort gate)” value was “low polyreactivity”.

In the case of “QVQLVESVGGLVQAGGSLRLSCAASGFTIYPYAMGWYRQAPGKERELVAAISSSGGNTYYADSVKGRFTISRDNAKNTVYLQMNSLKPEDTAVYYCNARVYRWAIAPDDDSWGQGTQVTVSS”, the “polyreactivity (PSR sort gate)” value was “high polyreactivity”.

On to “QVQLVESVGGLVQAGGSLRLSCAASGGIFGVYAMGWYRQAPGKERELVAAISNSDTSTSYADSVMGRFTISRDIAKNTVYLQMNSVYPEDTAVYYCNADSPSLSGDYWGQGTQVTVSS”, for which the “polyreactivity (PSR sort gate)” value was “low polyreactivity”.

Consider “QVQLVESVGGLVQAGGSLRLSCAASGGIFWVYAMGWYRQAPGKERELVASISWNGGSTNYADSVKGLFTISRDNAKNTVYLQMNSLKPEDTAVYYCAAEYWTSYADYRYDYWGQGTQVTVSS”, for which the “polyreactivity (PSR sort gate)” value is “low polyreactivity”.

As to “QVQLVESVGGLVQAGGSLRLSCAASGGTFKTNAMGWYIQAPGKERELVAAITGSGTSTYYADSVKGRFTISRDNAKNTVYLQMNSLKPEDTAVYYCAADKLYQPGIGDDYWGQGNQVTVSS”, the “polyreactivity (PSR sort gate)” value is on record as “low polyreactivity”.

As for “QVQLVESVGGLVQAGGSLRLSCAASGGTFSFNAMGWYRQAPGKERELVAAITQTGDRTYYADSVKGRFTISRDNAKNTVYLQMNSLKPEDTAVYYCAADDIYYQGIYRGSEFDYRGQGTQVTVSS”, the “polyreactivity (PSR sort gate)” value is given as “low polyreactivity”.
